Experimental data as given in the supplement of paper PMC9170038.

Tested on: MS2 coat protein
Assay: apparent KD of MS2 coat protein; designed switch direction (-1 OFF switch, 1 ON switch): -1; higher = weaker reporter binding
Outline: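 Designed RNA switches were transcribed on Illumina chips by stalled E. coli RNA polymerase and titrated with SNAP-549-labelled MS2 coat protein from 0.7 or 1.5 nM, doubling to 3 µM. Step length ran from 0.8–1.5 h at the lowest concentration to 10–20 min at the highest. The apparent KD is the median over clusters for each design, from curve-fitted normalised cluster fluorescence.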

[1] = Eterna round: R95, input ligand: microRNA oligo, concentration not stated
[2] = Eterna round: R95, input ligand: FMN 200 uM
[3] = Eterna round: R95, input ligand: none
[4] = input ligand: microRNA oligo, concentration not stated

Row | Sequence | apparent KD of MS2 coat protein [1] [nM] | apparent KD of MS2 coat protein (input ligand: FMN 200 uM) [nM] | apparent KD of MS2 coat protein (input ligand: none) [nM] | further results
1 | CCAGCGUAUGUGAGGAUAUGCUGGUCCUUGGAUCAGCAGAAGGCACAUGAGGAUCACCCAUGUGGAGACGUUGG [JL bmx4 3.42] (puzzle: Brourd's mod of Exclusion 4) | 18 | – | – | –
2 | CCAGCGUAUGUGAGGAUAUGCUGGUCCUUGGAUCAGCAGAAGGCACAUGAGGAUCACCCAUGUGGUGACGUUGG [JL bmx4 3.44] (puzzle: Brourd's mod of Exclusion 4) | 143 | – | – | apparent KD of MS2 coat protein [2]: 19.1 nM; apparent KD of MS2 coat protein [3]: 411 nM
3 | CCAGGCGUCUUGGCUCGUCUUAUUUGGAGAGGAUUGAUAACAUGAGGAUCACCCAUGUGUGUGGGAGAGUUGCAGUG [JR_SV3TOV2_Sub018] (puzzle: Sensor v3, turn-off variant 2) | 425 | – | – | apparent KD of MS2 coat protein [2]: 335 nM; apparent KD of MS2 coat protein [3]: 374 nM
4 | CCAGGCUGUGUGAGGAUAUGCUGGUCCUUGGAUCAGCAGAAGGCACAUGAGGAUCACCCAUGUGAGUAGCUUGG [JL bmx4 3.27] (puzzle: Brourd's mod of Exclusion 4) | 15.7 | – | – | –
5 | CCAUACUGUAAGCUUCCCAACAUGAGGAUCACCCAUGUGGACCACGGCUUCGGUCAGCUAACCUGCUCGUCGUUGAU [Eternabot (L2) Solution 31] (Eterna round: R97, puzzle: Sensor, turn-off variant 1) | – | 15.2 | 16.9 | –
6 | CCAUCACAUGAGGAUCACCCAUGUCAGGAUAUCUCAGUGCAUCCACACGGACGCAUCAAGAGAAGGGACAAAAC [Vinxlusion 4 - Jieux - Exclusion 1] (Eterna round: R97, puzzle: Exclusion 1) | – | 35.9 | 34.8 | –
7 | CCAUCGAGUGUGAGGAUAUGCUGGUCCUUGGAUCAGCAGAAGGCACAUGAGGAUCACCCAUGUGAAUACGGUGG [JL bmx4 3.20] (puzzle: Brourd's mod of Exclusion 4) | 28.3 | – | – | –
8 | CCAUUCAGAGGAUAUGCGAAUAAAUAAAACUUUUUUUUUUAACAUGAGGAUCACCCAUGUAGAAGGCUGUAACC [Ex2 #44] (Eterna round: R97, puzzle: Exclusion 2) | – | 31.4 | 27.6 | –
9 | CCCAACGUAACAGGAUAUGCUGUUGAGGCCGGGCGACCUACAUGAGGAUCACCCAUGUCGAAAUGGCAGAAGGGUUGCCGGGUA [Quatin] (Eterna round: R96, puzzle: Exclusion NG 2) | – | 315 | 94.4 | apparent KD of MS2 coat protein [4]: 61.9 nM
10 | CCCAGUUAGUGAGGAUAUCCUACAUGAGGAUCACCCAUGUAAUAAAUGAGGAUUUCGGGUGUCUAGGAGAAGGCACGGAUAGGC [Ostracism 24 - Jieux - Exclusion NG 2] (Eterna round: R96, puzzle: Exclusion NG 2) | – | 79.3 | 44.8 | apparent KD of MS2 coat protein [4]: 36 nM
11 | CCCGGGAGUCAGGAUAUCUCCGAGGAGUAUCAGAGAGAAGGGACUACUUGAGGAUCACCCAAGUAGGUGUAAAA [Enleteerre] (Eterna round: R97, puzzle: Exclusion 6) | – | 28.8 | 20.2 | –
12 | CCCGGGCCUGUGAGGAUAUGUUUGGGUAAACCCGGGCAGAAGGCACAUGAGGAUCACCCAUGUAAGGGUUUGGG [-29.6, -27.5 kcal, A 23%, 5bbis-5bbis] (Eterna round: R97, puzzle: Brourd's mod of Exclusion 4) | – | 22.6 | 34.5 | –
13 | CCCGUACAUGAGGAUCACCCAUGUCAGGAUAUCUAAUCAUGCUGUAAGGCACAUUGAGGGAGAAGGGACAUAUU [EX1 B.29] (Eterna round: R97, puzzle: Exclusion 1) | – | 32.4 | 20.8 | –
14 | CCCGUGUAAGGAUAUCGUUCACUUGACAAAAGUCAAGUGAACGAGAAGGUACAUGAGGAUCACCCAUGUACGGG [-33.8, -33.4 kcal, A 32%] (Eterna round: R97, puzzle: Exclusion 4) | – | 418 | 571 | –
15 | CCCUCGGGAGGAUAUGGGUGUUUUUACAUGAGGAUCACCCAUGUAGAGUAAUAUGUGGGUCCAGAAGGCCCAAGGG [-26, -24.7 kcal, 25% A] (Eterna round: R97, puzzle: Exclusion 5) | – | 86.9 | 210 | –
16 | CCGAAAAGGAAGGAUAUGCUAGACGAAAGUCUAGCAGAAGGUCCUACAUGAGGAUCACCCAUGUGUCCUAUCGG [Mat - Exclusion 6 - Eli Mod - D39] (Eterna round: R97, puzzle: Exclusion 6) | – | 49.9 | 43.4 | –
17 | CCGAAGUGGCGGUCCUAUGACAUGAGGAUCACCCAUGUACUUCGCCACGAGCUUUUUGCUCGUCUUAUAGUUCUCGG [Sensor v3, turn-off variant 1 (MOD of Ator)] (puzzle: Sensor v3, turn-off variant 1) | 32.4 | – | – | apparent KD of MS2 coat protein [2]: 435 nM; apparent KD of MS2 coat protein [3]: 504 nM
18 | CCGCAAAUGCAGGAUAUCGUAUCGGAUACGAUACGAGAAGGGCGAACAUGAGGAUCACCCAUGUGUCCUAGCGG [Fiskers Ex 6 - 40] (puzzle: Exclusion 6) | 40.3 | – | – | apparent KD of MS2 coat protein [2]: 34.7 nM; apparent KD of MS2 coat protein [3]: 51.6 nM

Row | Sequence | apparent KD of MS2 coat protein [1] [nM] | apparent KD of MS2 coat protein (input ligand: FMN 200 uM) [nM] | apparent KD of MS2 coat protein (input ligand: none) [nM] | further results
19 | CCGCAAAUGGAGGAUAUCGUAUCGGAUACGAUACGAGAAGGCUAUACAUGAGGAUCACCCAUGUGUCCUAGCGG [Fiskers Ex 6 - 46] (puzzle: Exclusion 6) | 11.4 | – | – | –
20 | CCGCAGCGGUAGGAUAUUAUGACGUCAUGGGCAUAAGAAGGACCGACAUGAGGAUCACCCAUGUUGGGUGCCCG [EX6 C.24] (Eterna round: R97, puzzle: Exclusion 6) | – | 33.7 | 21.7 | –
21 | CCGCAUAUGCAGGAUAUCGUAUCGGAAACGAUACGAGAAGGGUAAACAUGAGGAUCACCCAUGUUCCUUAACGG [Fiskers Ex 6 - 28] (puzzle: Exclusion 6) | 14.6 | – | – | –
22 | CCGCGCCGGCGAGGAUAUUAGAAAGGAAGUGUAUAAGAAGGCGCCAUGCGCGAACAUGAGGAUCACCCAUGUGCCGCUCGUGUA [PowerStrip EXNG 1.24] (Eterna round: R96, puzzle: Exclusion NG 1) | – | 39.7 | 23.1 | apparent KD of MS2 coat protein [4]: 15.4 nM
23 | CCGCUCCGUGUAGGAUAUCGGCGUACCCUGCGCCGAGAAGGACAUGAGGAUCACCCAUGUAUGUUAUUAUCACGCGUGGCGCAC [Design 74] (Eterna round: R96, puzzle: Exclusion NG 1) | – | 19.8 | 20.2 | apparent KD of MS2 coat protein [4]: 14.6 nM
24 | CCGCUGCAAGGAUAUACUUGCGGUGGUGCUCGAGAUCUUUUACUUGAGGAUCACCCAAGUAGAAGGUGCAAAAC [jl-ex2.4.53 ViennaUCT mod] (Eterna round: R97, puzzle: Exclusion 2) | – | 26.2 | 17.9 | –
25 | CCGGAAAGGAAGGAUAUGCUAGACGAUAGUCUAGCAGAAGGUCCUACAUGAGGAUCACCCAUGUGGCCUCCCGG [Mat - Exclusion 6 - Eli Mod - D47] (Eterna round: R97, puzzle: Exclusion 6) | – | 680 | 114 | –
26 | CCGGAAAUACAGGAUAUAGGAGUCAAUAGACUCCUAGAAGGGUAUACAUGAGGAUCACCCAUGUGUCCUACCGG [Fiskers Ex 6 - 66] (Eterna round: R96, puzzle: Exclusion 6) | – | 39.9 | 27.7 | apparent KD of MS2 coat protein [4]: 23.3 nM
27 | CCGGAAAUACAGGAUAUAGGAGUCAAUAGACUCCUAGAAGGGUAUACAUGAGGAUCACCCAUGUGUCCUACCGG [Fiskers Ex 6 - 66] (puzzle: Exclusion 6) | 25.1 | – | – | –
28 | CCGGAAAUAGAGGAUAUAGGAGUCGAUAGACUCCUAGAAGGCUAUACAUGAGGAUCACCCAUGUGUCCUACCGG [Fiskers Ex 6 - 65] (puzzle: Exclusion 6) | 16.6 | – | – | –
29 | CCGGAUAUGCAGGAUAUCGAAUCGGAAACGAUUCGAGAAGGGUAUACAUGAGGAUCACCCAUGUGUCCUACCGG [Mat - Exclusion 6 - Eli Mod - D87] (puzzle: Exclusion 6) | 19.4 | – | – | –
30 | CCGGAUAUGCAGGAUAUCGUAACGGAAACGUUACGAGAAGGGUAUACAUGAGGAUCACCCAUGUGUCCUACCGG [Mat - Exclusion 6 - Eli Mod - D86] (puzzle: Exclusion 6) | 21.1 | – | – | –
31 | CCGGCUGCUGUGAGGAUAUGCCUGCGCGCCCGCGGGCAGAAGGCACAUGAGGAUCACCCAUGUCCUGCGGUCCC [salish99_bmx4_r4_119] (Eterna round: R97, puzzle: Brourd's mod of Exclusion 4) | – | 45.2 | 18.2 | –
32 | CCGGUAGCAUAGGAUAUCGCCAACGUUGUAGUACGAGAAGGGUGCACAUGAGGAUCACCCAUGUUUCCUGGCCG [Eternabot (L2) Solution 63] (Eterna round: R97, puzzle: Exclusion 6) | – | 107 | 131 | –
33 | CCGGUUGGCGCAGGAUAUACAUGAGGAUCACCCAUGUUCGUGAGGAUCACCCAUGAGUUUUUGUUGUAGAAGGGUGGCCCGGCC (Eterna round: R96, puzzle: Exclusion NG 2) | – | 24.4 | 28.5 | apparent KD of MS2 coat protein [4]: 16 nM
34 | CCGUGCACGCUGCGCUCCUACAUGAGGAUCACCCAUGUGGUCCGGUGGCGUGGGUCGCCGGACUUGGCUCGUCUUGU [salish99_S_TOV1_R5_019] (Eterna round: R97, puzzle: Sensor, turn-off variant 1) | – | 83.1 | – | –
35 | CCGUGCACGCUGCGGUCCUACAUGAGGAUCACCCAUGUGGUCUGGUGGCGUGGGUCGCCGGACUUGGCUCGUCUUGA [salish99_S_TOV1_R5_021] (Eterna round: R97, puzzle: Sensor, turn-off variant 1) | – | 18.8 | 19.2 | –
